{"source": "patent US20030199036", "target": "S. pombe cdc25 tagged with a triple tandem copy of the hemagglutinin epitope (UniProt P06652)"}
{"substance": "Schizosaccharomyces pombe pub1 (untagged)", "values": [{"measurement": "accumulation of cdc25 higher molecular weight (ubiquitinated) species in mts2 mutants, pub1 wild type (SP 1212) against pub1 disruption (SP 1213), Western blot", "result": "We estimate that disruption of pub1 reduces the accumulation of cdc25 higher molecular weight species at least 10 fold."}]}
